From patent publication US8962697

T1: LAR-7048
T1 chain: PRRICV

T2: LAR-7047
T2 chain: VFFRRQTA

T3: LAR-7009
T3 chain: PRRRRPRQITA


Assays:
LAR-7048 = target: T1, LAR-7048
LAR-7047 = target: T2, LAR-7047
LAR-7009 = target: T3, LAR-7009

| Protein | degradation of the control peptide (LAR-7048) | degradation of the control peptide (LAR-7047) | hydrolysis of the peptide substrate, fragments by mass spectrometry (LAR-7009) |
| --- | --- | --- | --- |
| Aureolysin (protein) AAATGTGKGVLGDTKDININSIDGGFSLEDLTHQGKLSAYNFNDQTGQATLITNEDENFVKDDQRAGVDANYYAKQTYDYYKNTFGRESYDNHGSPIVSLTHVNHYGGQDNRNNAAWIGDKMIYGDGDGRTFTNLSGANDVVAHELTHGVTQETANLEYKDQSGALNESFSDVFGYFVDDEDFLMGEDVYTPGKEGDALRSMSNPEQFGQPSHMKDYVYTEKDNGGVHTNSGIPNKAAYNVIQAIGKSKSEQIYYRALTEYLTSNSNFKDCKDALYQAAKDLYDEQTAEQVYEAWNEVGVE | No degradation was observed in these systems | No degradation was observed in these systems |  |
| Matrix Metalloproteinase-9 (protein) MRTPRCGVPDLGRFQTFEGDLKWHHHNITYWIQNYSEDLPRAVIDDAFARAFALWSAVTPLTFTRVYSRDADIVIQFGVAEHGDGYPFDGKDGLLAHAFPPGPGIQGDAHFDDDELWSLGKGVVVPTRFGNADGAACHFPFIFEGRSYSACTTDGRSDGLPWCSTTANYDTDDRFGFCPSERLYTQDGNADGKPCQFPFIFQGQSYSACTTDGRSDGYRWCATTANYDRDKLFGFCPTRADSTVMGGNSAGELCVFPFTFLGKEYSTCTSEGRGDGRLWCATTSNFDSDKKWGFCPDQGYSLFLVAAHEFGHALGLDHSSVPEALMYPMYRFTEGPPLHKDDVNGIRHLYGPRPEPEPRPPTTTTPQPTAPPTVCPTGPPTVHPSERPTAGPTGPPSAGPTGPPTAGPSTATTVPLSPVDDACNVNIFDAIAEIGNQLYLFKDGKYWRFSEGRGSRPQGPFLIADKWPALPRKLDSVFEERLSKKLFFFSGRQVWVYTGASVLGPRRLDKLGLGADVAQVTGALRSGRGKMLLFSGRRLWRFDVKAQMVDPRSASEVDRMFPGVPLDTHDVFQYREKAYFCQDRFYWRVSSRSELNQVDQVGYVTYDILQCPED | No degradation was observed in these systems | No degradation was observed in these systems | Degradation of LAR-7009 ... produced specific fragment pick: 1121.66 corresponding to [..] sequence |
